From paper PMC10992053, “Rationally introducing non-canonical amino acids to enhance catalytic activity of LmrR for Henry reaction” (Bioresources and Bioprocessing, 2024)

Tested on: O=Cc1ccc([N+](=O)[O-])cc1
Test: Henry reaction, product by HPLC, Michaelis-Menten fit
Assay type: biochemical, Lactococcus cremoris
Settings: nitromethane 1 M (excess), 3-18 mM aldehyde, 0.3 mg/mL enzyme, 40 °C, 5 min
From the text: Henry reaction, product by HPLC, Michaelis-Menten fit on LmrR (Lactococcal multidrug resistance Regulator)

Q: What does the source list for “LmrR (Lactococcal multidrug resistance Regulator) (Lactococcus cremoris subsp. cremoris MG1363; V15F)”?
A: Km: 8.28 mM; Vmax: 1960 µM/min; kcat: 1.47 s⁻¹; kcat/Km: 178 M⁻¹ s⁻¹
